The source of these data is PMC9399289, “Extended DNA-binding interfaces beyond the canonical SAP domain contribute to the function of replication stress regulator SDE2 at DNA replication forks”.

The target in series [1] is T1, GST-SDE2 ΔSAP+CTT (human, UniProt Q6IQ49 1-394, del395-451).
T1 sequence: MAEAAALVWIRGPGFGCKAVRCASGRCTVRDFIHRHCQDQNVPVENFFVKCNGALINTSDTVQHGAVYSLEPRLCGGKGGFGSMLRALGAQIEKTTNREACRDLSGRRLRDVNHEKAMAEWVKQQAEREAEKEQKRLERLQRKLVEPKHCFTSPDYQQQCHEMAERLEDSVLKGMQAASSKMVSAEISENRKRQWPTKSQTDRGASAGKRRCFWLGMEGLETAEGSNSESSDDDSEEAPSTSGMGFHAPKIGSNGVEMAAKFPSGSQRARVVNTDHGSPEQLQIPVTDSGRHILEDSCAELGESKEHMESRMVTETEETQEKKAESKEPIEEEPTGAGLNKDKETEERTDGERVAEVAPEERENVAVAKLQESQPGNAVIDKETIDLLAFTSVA
Kind of series: EMSA; 50-200 nM protein; EMSA: 10 mM Tris-HCl pH 7.5, 50 mM NaCl, 0.5 mM DTT, 0.05 mM EDTA, 3% glycerol, 0.05 mg/ml BSA (or 50 mM Na/K PO4 pH 6.0, 50 mM NaCl, 5 mM DTT), on ice; anisotropy: 50 mM Na/K PO4 pH 6.0, 50 mM NaCl, 5 mM DTT, 1 uM DNA; pull-down: 10 mM Tris-HCl pH 7.5, 100 mM NaCl, 0.2 mM EDTA, 1 mM DTT, 10% glycerol, 0.01% NP-40, 10 ug/ml BSA, RT; NMR: 50 mM Na/K phosphate, 50 mM NaCl, 5 mM DTT, 10% D2O. The settings on record: protein: recombinant; tags: N-term GST; label: 5' 6-FAM. For orientation: In EMSA bound probe runs differently from free probe, usually more slowly.

In series [2] the target is T2, GST-SDE2-FLAG WT (human, UniProt Q6IQ49 1-451).
T2 sequence: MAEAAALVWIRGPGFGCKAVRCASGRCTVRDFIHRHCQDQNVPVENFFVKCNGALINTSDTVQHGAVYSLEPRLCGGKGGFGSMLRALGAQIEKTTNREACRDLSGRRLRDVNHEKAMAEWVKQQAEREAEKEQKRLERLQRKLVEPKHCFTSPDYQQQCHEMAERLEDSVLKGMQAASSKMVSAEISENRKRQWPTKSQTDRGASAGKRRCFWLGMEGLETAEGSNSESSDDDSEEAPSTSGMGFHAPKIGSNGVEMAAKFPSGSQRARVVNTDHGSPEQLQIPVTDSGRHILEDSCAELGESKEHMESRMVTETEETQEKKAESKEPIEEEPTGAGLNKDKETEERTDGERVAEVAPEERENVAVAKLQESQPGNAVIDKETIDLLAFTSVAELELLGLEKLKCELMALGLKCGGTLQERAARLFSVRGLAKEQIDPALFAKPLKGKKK
The series is described as follows: fluorescence anisotropy; EMSA: 10 mM Tris-HCl pH 7.5, 50 mM NaCl, 0.5 mM DTT, 0.05 mM EDTA, 3% glycerol, 0.05 mg/ml BSA (or 50 mM Na/K PO4 pH 6.0, 50 mM NaCl, 5 mM DTT), on ice; anisotropy: 50 mM Na/K PO4 pH 6.0, 50 mM NaCl, 5 mM DTT, 1 uM DNA; pull-down: 10 mM Tris-HCl pH 7.5, 100 mM NaCl, 0.2 mM EDTA, 1 mM DTT, 10% glycerol, 0.01% NP-40, 10 ug/ml BSA, RT; NMR: 50 mM Na/K phosphate, 50 mM NaCl, 5 mM DTT, 10% D2O. The conditions noted are these: protein: recombinant; tags: N-term GST, C-term FLAG; label: 5' 6-FAM. (In general: Polarisation of emitted light reports the rotation of a fluorescent probe.)

The target of series [3] is T3, GST-SDE2SAP (human, UniProt Q6IQ49 350-451).
T3 sequence: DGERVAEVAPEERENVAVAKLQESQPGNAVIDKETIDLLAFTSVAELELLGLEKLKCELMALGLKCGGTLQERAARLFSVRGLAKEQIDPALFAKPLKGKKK
The series is described as above. The conditions noted are these: protein: recombinant; tags: N-term GST; label: 5' 6-FAM.

The target of series [4] is T4, GST-SDE2-FLAG ΔSAP (human, UniProt Q6IQ49 1-451, del395-427).
T4 sequence: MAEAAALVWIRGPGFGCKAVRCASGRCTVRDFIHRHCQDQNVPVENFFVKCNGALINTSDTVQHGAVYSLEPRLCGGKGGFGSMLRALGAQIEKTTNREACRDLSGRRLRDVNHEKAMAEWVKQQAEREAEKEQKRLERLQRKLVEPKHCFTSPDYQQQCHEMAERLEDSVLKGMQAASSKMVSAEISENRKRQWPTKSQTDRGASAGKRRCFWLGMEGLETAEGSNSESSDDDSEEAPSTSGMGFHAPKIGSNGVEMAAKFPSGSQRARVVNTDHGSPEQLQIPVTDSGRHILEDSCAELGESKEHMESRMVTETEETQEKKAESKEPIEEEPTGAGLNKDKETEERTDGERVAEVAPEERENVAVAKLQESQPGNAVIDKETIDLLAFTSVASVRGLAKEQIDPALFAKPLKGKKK
The series is described as follows: EMSA; 200 nM protein, 50 nM DNA; EMSA: 10 mM Tris-HCl pH 7.5, 50 mM NaCl, 0.5 mM DTT, 0.05 mM EDTA, 3% glycerol, 0.05 mg/ml BSA (or 50 mM Na/K PO4 pH 6.0, 50 mM NaCl, 5 mM DTT), on ice; anisotropy: 50 mM Na/K PO4 pH 6.0, 50 mM NaCl, 5 mM DTT, 1 uM DNA; pull-down: 10 mM Tris-HCl pH 7.5, 100 mM NaCl, 0.2 mM EDTA, 1 mM DTT, 10% glycerol, 0.01% NP-40, 10 ug/ml BSA, RT; NMR: 50 mM Na/K phosphate, 50 mM NaCl, 5 mM DTT, …. The conditions noted are these: protein: recombinant; tags: N-term GST, C-term FLAG; label: 5' 6-FAM.

In series [5] the target is T5, GST-SDE2 CGTKK (human, UniProt Q6IQ49 1-451, C415A;G417S;T418V;K444A;K447A).
T5 sequence: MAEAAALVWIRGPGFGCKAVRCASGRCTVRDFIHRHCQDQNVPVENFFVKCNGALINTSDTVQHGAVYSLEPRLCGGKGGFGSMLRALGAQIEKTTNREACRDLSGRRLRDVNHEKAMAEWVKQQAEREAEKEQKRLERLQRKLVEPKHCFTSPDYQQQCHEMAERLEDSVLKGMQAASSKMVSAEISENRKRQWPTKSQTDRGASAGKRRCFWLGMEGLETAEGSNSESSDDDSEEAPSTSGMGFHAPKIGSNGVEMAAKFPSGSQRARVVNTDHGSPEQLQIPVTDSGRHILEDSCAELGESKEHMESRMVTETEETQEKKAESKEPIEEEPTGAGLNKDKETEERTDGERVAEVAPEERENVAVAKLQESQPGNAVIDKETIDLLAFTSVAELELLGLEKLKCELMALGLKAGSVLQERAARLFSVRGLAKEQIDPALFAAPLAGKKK
Kind of series: EMSA; 50-200 nM protein, 20 nM DNA; EMSA: 10 mM Tris-HCl pH 7.5, 50 mM NaCl, 0.5 mM DTT, 0.05 mM EDTA, 3% glycerol, 0.05 mg/ml BSA (or 50 mM Na/K PO4 pH 6.0, 50 mM NaCl, 5 mM DTT), on ice; anisotropy: 50 mM Na/K PO4 pH 6.0, 50 mM NaCl, 5 mM DTT, 1 uM DNA; pull-down: 10 mM Tris-HCl pH 7.5, 100 mM NaCl, 0.2 mM EDTA, 1 mM DTT, 10% glycerol, 0.01% NP-40, 10 ug/ml BSA, RT; NMR: 50 mM Na/K phosphate, 50 mM NaCl, 5 mM DTT, …. The settings on record: protein: recombinant; tags: N-term GST; label: 5' 6-FAM.

B1: 60-mer ssDNA (EMSA1) (ssDNA)
DNA: GACGCTGCCGAATTCTACCAGTGCCTTGCTAGGACATCTTTGCCCACCTGCAGGTTCACCC
Take B1: the binding result in series [1], in series [4] and in series [5] was “no binding” throughout. The figures for the Kd in series [2] and in series [3] were about 1100 nM and 1770 ± 410 nM, respectively.

A word on the Kd: it is the free concentration of one partner at which half of the binding sites on the other are occupied at equilibrium, for simple one-to-one binding.
